Here are results for 5 substances from US20240109955A1.

This test deals with SARS-CoV-2 spike protein, original Wuhan strain (WT) (SARS-CoV-2) (UniProt P0DTC2). In words: cell-based or functional assay.

A19-46 mAb (antibody), sequence (VH): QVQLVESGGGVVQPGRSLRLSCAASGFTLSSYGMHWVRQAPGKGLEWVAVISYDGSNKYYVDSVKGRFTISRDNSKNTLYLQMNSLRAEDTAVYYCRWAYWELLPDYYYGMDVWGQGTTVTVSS
A19-46 mAb (antibody), sequence (VL): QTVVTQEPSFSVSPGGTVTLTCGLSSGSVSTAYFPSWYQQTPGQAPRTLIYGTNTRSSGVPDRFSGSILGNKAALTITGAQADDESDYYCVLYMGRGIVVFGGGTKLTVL
A19-46.1 (antibody), sequence (VH): as the sequence (VH) above
A19-46.1 (antibody), sequence (VL): as the sequence (VL) above

The substance B1-182.1 (antibody) gave an IC50, pseudovirus neutralization of 0.0264 nM and an IC80, pseudovirus neutralization of 0.0692 nM.

A19-61 mAb (antibody) returned an IC50, pseudovirus neutralization of 0.172 nM and an IC80, pseudovirus neutralization of 0.408 nM.

Regarding A19-46.1 (antibody), the IC50, pseudovirus neutralization came out at 0.263 nM and the IC80, pseudovirus neutralization came out at 0.778 nM.

With A19-46 mAb (antibody), the IC50, pseudovirus neutralization came to 0.263 nM and the IC80, pseudovirus neutralization worked out at 0.778 nM.

As for B1-182 mAb (antibody), the IC50, pseudovirus neutralization was found to be 0.0264 nM and the IC80, pseudovirus neutralization amounted to 0.0692 nM.
